Source: patent US20230242902A1, “A HIGHLY ERROR-PRONE […] R[…] FOR TARGETED CONTINUOUS EVOLUTION IN VIVO” (The Regents of the University of California, priority 2017, published 2023)
Numbering of substitutions follows the chain as printed. Names and notes keep the numbering of the source.

B1: I307L: TP-DNAP1 variant (protein)
chain: MDYKDKALNDLRNVYADFDSLPLDFRQILIKDRATLLQKEDVEKKILERQEDAKKYAEYLKQSEIPERISLPNIKRHKGVSISFEETSEDMVLEPRPFIFDGLNIRCFRRETIFSLKNKILNMVKESSSFKNVSRQSVSFMYFKIFNKGKVIASTKSVNIYEDKIDERLEDLCNNFDDVLKKIIDVTYGYESLFVSETYSYVIFYAKSIYFPQPRCVNNWGNNIPNILTFDSFKLFTANKNNVSCIKQCSRFLWQKDFNTLEEMIEYKNGNICIVTPQLHINDVRDIKSFNDIRLYSESPIKTFSVLDNTITYLFYFKEHLGVIFNITKSRHDRRVTKFSPLSKFSDVKNITVCFDIESYFDPEKESNQVNIPFICCASIIYNKVIGNIVDFEGRDCVAQMIEYVVDICGELNISSVELIAHNGGGYDFHYILSSMYNPAAIKNILIRNNSFISFNFAHDGVKFSVKDSYSFLLCSLANASKAFLNEETFKKTDFPHHDLKTADDLYKVYKEWSSVNTEINHVVEKEKLLITSEHIVNFTKNDKSKTLIEWSKDYCRNDVLVLSKVWLEFKNAVEDIFNCELVDQTMTLAGLSYKLFQANMPFDVELRHPNKEDYFNMREALIGGRCISVNGIYKDVLCLDVKSLYPASMAFYDQPYGSFKRVSSRPKDELGIYYVRVTPNRNNKSNFFPIRSHNKITYNNFEESTYIAWYTNVDIDIGLSEGHNIEYIPFDSYGNIGYSWSKKGKIFEKYIKDVLYKLKIKYEKQNNKVKRNVIKIIMNSLWGKFAQKWVNFEYFIKSEDDIDFESEEAYKIWDTDFMLIKKIKESTYSSKPIQNGVFTLSWARYHMKSIWDAGAKEGAECIYSDTDSIFVHKEHFKKNAKFMLNGLKVPIIGSEVGQLELECEFDKLLCAGKKQYMGFYTYFQDGKPCIKEKKRFKGIPSNYIIPELYAHLLSGADKEAKIQFLKFRREWGSVKGYIENKTVKAT
B2: D333N: TP-DNAP1 variant (protein)
chain: B1 chain with L307I, D333N
B3: D333V: TP-DNAP1 variant (protein)
chain: B1 chain with L307I, D333V
B4: R395P: TP-DNAP1 variant (protein)
chain: B1 chain with L307I, R395P
B5: Y382A: TP-DNAP1 variant (protein)
chain: B1 chain with L307I, Y382A
B6: V385W: TP-DNAP1 variant (protein)
chain: B1 chain with L307I, V385W
B7: I311N: TP-DNAP1 variant (protein)
chain: B1 chain with L307I, I311N
B8: G387H: TP-DNAP1 variant (protein)
chain: B1 chain with L307I, G387H
B9: I327Q: TP-DNAP1 variant (protein)
chain: B1 chain with L307I, I327Q
B10: T312Q: TP-DNAP1 variant (protein)
chain: B1 chain with L307I, T312Q
B11: D333T: TP-DNAP1 variant (protein)
chain: B1 chain with L307I, D333T
B12: T310N: TP-DNAP1 variant (protein)
chain: B1 chain with L307I, T310N
B13: Y313M: TP-DNAP1 variant (protein)
chain: B1 chain with L307I, Y313M
B14: Y382V: TP-DNAP1 variant (protein)
chain: B1 chain with L307I, Y382V
B15: Y313W: TP-DNAP1 variant (protein)
chain: B1 chain with L307I, Y313W
B16: I311M: TP-DNAP1 variant (protein)
chain: B1 chain with L307I, I311M
B17: D333A: TP-DNAP1 variant (protein)
chain: B1 chain with L307I, D333A
B18: I311D: TP-DNAP1 variant (protein)
chain: B1 chain with L307I, I311D
B19: T312E: TP-DNAP1 variant (protein)
chain: B1 chain with L307I, T312E
B20: I372C: TP-DNAP1 variant (protein)
chain: B1 chain with L307I, I372C
B21: Y313H: TP-DNAP1 variant (protein)
chain: B1 chain with L307I, Y313H
B22: Y313F: TP-DNAP1 variant (protein)
chain: B1 chain with L307I, Y313F
B23: T310D: TP-DNAP1 variant (protein)
chain: B1 chain with L307I, T310D
B24: V406C: TP-DNAP1 variant (protein)
chain: B1 chain with L307I, V406C
B25: N309C: TP-DNAP1 variant (protein)
chain: B1 chain with L307I, N309C
B26: Y316R: TP-DNAP1 variant (protein)
chain: B1 chain with L307I, Y316R
B27: D308Q: TP-DNAP1 variant (protein)
chain: B1 chain with L307I, D308Q
B28: T310H: TP-DNAP1 variant (protein)
chain: B1 chain with L307I, T310H
B29: K365N: TP-DNAP1 variant (protein)
chain: B1 chain with L307I, K365N
B30: I311G: TP-DNAP1 variant (protein)
chain: B1 chain with L307I, I311G
B31: T310E: TP-DNAP1 variant (protein)
chain: B1 chain with L307I, T310E
B32: N309K, I311G: TP-DNAP1 variant (protein)
chain: B1 chain with L307I, N309K, I311G
B33: Y313V: TP-DNAP1 variant (protein)
chain: B1 chain with L307I, Y313V
B34: T310W: TP-DNAP1 variant (protein)
chain: B1 chain with L307I, T310W
B35: D333N, K344R: TP-DNAP1 variant (protein)
chain: B1 chain with L307I, D333N, K344R
B36: S330R: TP-DNAP1 variant (protein)
chain: B1 chain with L307I, S330R
B37: I311A: TP-DNAP1 variant (protein)
chain: B1 chain with L307I, I311A
B38: D333M: TP-DNAP1 variant (protein)
chain: B1 chain with L307I, D333M
B39: T310F: TP-DNAP1 variant (protein)
chain: B1 chain with L307I, T310F

Test system: p1
Assay: p1 copy number by p1-encoded mKate2 fluorescence
Type: cell-based, S. cerevisiae
Conditions: OR-Y24, measured in triplicate
How it was run: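 Read-out is mKate2 fluorescence of saturated OR-Y24 cultures, measured by flow cytometry or by plate reader with OD600 normalization. Flow values were converted by a qPCR-derived linear calibration; plate values were scaled to a w.t. TP-DNAP1 control.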

Molecule | Mean fold-increase over w.t. (p1 copy number) [fold]
B1 | 2.76
B2 | 2.07
B3 | 2.18
B4 | 1.91
B5 | 1.6
B6 | 1.41
B7 | 2.55
B8 | 1.57
B9 | 2.15
B10 | 2.85
B11 | 2.41
B12 | 2.83
B13 | 1.94
B14 | 1.62
B15 | 2.15
B16 | 2.26
B17 | 1.57
B18 | 1.86
B19 | 2.29
B20 | 1.73

Molecule | Mean fold-increase over w.t. (p1 copy number) [fold]
B21 | 3.08
B22 | 2.11
B23 | 2.64
B24 | 2.34
B25 | 2.25
B26 | 2.46
B27 | 2.15
B28 | 2.57
B29 | 1.89
B30 | 2.05
B31 | 2.37
B32 | 2.2
B33 | 2.48
B34 | 2.48
B35 | 2.07
B36 | 2.21
B37 | 2.19
B38 | 2.6
B39 | 2.66
